# In patent US20240288440A1:
# Tests used:
# [1] = target: receptor binding domain (RBD) of the SARS COV-2 spike protein (amino acids 332-532) (SARS-COV-2) (UniProt P0DTC2)
# [2] = target: chimeric secretory component (CSC) of the polymeric immunoglobulin receptor (rabbit (domain 1) and human (domains 2 to 5))
# chimeric secretory component (CSC) of the polymeric immunoglobulin receptor (rabbit (domain 1) and human (domains 2 to 5)), sequence (P01833 other isoform, or with tags, fused parts or gaps mutant): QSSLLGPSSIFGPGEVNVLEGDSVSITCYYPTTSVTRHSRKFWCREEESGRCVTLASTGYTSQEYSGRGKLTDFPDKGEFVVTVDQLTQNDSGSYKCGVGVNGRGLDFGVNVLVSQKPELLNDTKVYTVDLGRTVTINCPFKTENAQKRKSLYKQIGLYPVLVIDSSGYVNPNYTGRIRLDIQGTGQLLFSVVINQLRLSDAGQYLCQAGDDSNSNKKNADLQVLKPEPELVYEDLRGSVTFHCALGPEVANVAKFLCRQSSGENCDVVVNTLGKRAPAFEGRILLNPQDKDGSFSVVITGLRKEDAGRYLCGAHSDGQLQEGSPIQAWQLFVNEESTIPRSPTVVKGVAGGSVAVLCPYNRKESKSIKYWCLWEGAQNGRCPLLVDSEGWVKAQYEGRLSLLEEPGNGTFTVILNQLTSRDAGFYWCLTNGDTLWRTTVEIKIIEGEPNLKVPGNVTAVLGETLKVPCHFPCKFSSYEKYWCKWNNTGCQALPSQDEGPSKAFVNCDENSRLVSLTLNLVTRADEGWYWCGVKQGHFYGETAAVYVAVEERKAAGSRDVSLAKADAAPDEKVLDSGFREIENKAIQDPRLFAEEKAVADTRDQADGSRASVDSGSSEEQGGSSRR
substance,measurement,setting,value
"CB6-IgG (SARS-COV-2 specific monoclonal antibody CB6, IgG form)",limit of detection,[1],5 µg/mL
same,limit of detection,[2],> 100 µg/mL
